Laboratory results: US20140314793A1 (BIOINVENT INTERNATIONAL, published 2014)

B1: BI-505 IgG4 (antibody, V domains shown)
VH: EVQLLESGGGLVQPGGSLRLSCAASGFTFSNAWMSWVRQAPGKGLEWVAFIWYDGSNKYYADSVKGRFTISRDNSKNTLYLQMNSLRAEDTAVYYCARYSGWYFDYWGQGTLVTVSS
VL: QSVLTQPPSASGTPGQRVTISCTGSSSNIGAGYDVHWYQQLPGTAPKLLIYDNNNRPSGVPDRFSGSKSGTSASLAISGLRSEDEADYYCQSYDSSLSAWLFGGGTKLTVLG
B2: BI-505 IgG1 N297Q (antibody, V domains shown)
VH: EVQLLESGGGLVQPGGSLRLSCAASGFTFSNAWMSWVRQAPGKGLEWVAFIWYDGSNKYYADSVKGRFTISRDNSKNTLYLQMNSLRAEDTAVYYCARYSGWYFDYWGQGTLVTVSS
VL: QSVLTQPPSASGTPGQRVTISCTGSSSNIGAGYDVHWYQQLPGTAPKLLIYDNNNRPSGVPDRFSGSKSGTSASLAISGLRSEDEADYYCQSYDSSLSAWLFGGGTKLTVLG
notes: also called Fc-mut; BI-505N297Q

Legend:
recombinant ICAM-1 = target: T1, recombinant ICAM-1 (UniProt P05362 28-480); test: ELISA on recombinant ICAM-1, luminescence
T1 construct: also called recombinant ICAM-1 protein

[1] = target: T2, intercellular cell adhesion molecule-1 (ICAM-1) on the surface of human cells (human, UniProt P05362 28-532); test: flow cytometry on ARH-77 cells, % of maximal cell ICAM-1 binding
T2 construct: whole, on cells; Endogenous antigen; also called CD54
T2 sequence (P05362 28-532): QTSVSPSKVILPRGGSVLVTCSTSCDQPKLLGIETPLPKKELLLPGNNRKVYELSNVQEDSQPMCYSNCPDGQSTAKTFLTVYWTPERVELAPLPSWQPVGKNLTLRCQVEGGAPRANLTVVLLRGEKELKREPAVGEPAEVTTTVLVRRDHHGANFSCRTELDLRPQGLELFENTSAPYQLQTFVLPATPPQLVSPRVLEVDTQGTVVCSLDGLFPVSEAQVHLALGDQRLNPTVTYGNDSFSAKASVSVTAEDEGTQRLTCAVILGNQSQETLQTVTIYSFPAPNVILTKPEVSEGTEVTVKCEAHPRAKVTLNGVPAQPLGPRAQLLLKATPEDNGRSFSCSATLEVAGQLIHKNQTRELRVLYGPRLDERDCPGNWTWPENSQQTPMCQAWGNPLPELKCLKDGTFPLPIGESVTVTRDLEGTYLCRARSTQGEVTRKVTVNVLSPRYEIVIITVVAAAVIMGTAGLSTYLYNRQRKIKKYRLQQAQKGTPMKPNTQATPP

T1 sequence (P05362 28-480 limits assumed): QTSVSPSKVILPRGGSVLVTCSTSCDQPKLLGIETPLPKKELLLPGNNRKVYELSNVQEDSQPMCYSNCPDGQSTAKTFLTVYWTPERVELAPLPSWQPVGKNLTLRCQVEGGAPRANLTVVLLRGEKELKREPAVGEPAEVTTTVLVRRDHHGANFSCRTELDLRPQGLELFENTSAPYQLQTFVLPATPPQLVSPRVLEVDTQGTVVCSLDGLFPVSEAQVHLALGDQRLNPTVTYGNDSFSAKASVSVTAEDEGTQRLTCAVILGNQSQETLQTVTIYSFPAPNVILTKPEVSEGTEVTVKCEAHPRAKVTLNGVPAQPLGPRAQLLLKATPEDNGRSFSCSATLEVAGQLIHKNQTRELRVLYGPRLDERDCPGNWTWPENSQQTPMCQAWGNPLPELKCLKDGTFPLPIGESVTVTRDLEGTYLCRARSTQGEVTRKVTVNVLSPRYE

| Binder | EC50 (read off the curve) (recombinant ICAM-1) [nM] | EC50 (read off the curve) [1] [µg/mL] |
| --- | --- | --- |
| B1 | ~0.2 | ~0.05 |
| B2 | ~0.2 | ~0.05 |
